Source: US20130071374

System: (His)6PemI

Substance: PemK(His)6
- cleavage of mazG mRNA (native PAGE of digestion products): the addition of PemI inhibited the cleavage of mazG mRNA in a dose-dependent manner
